Measured values taken from patent US20150239983A1 (University of California, published 2015).

T1: purified PSCA-Fc (human, UniProt O43653 12-83, limits assumed)
T1 construct: not shown: Fc part
T1 sequence: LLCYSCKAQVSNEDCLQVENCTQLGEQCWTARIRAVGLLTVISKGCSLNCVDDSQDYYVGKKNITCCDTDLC

B1: A11 anti-PSCA minibody (other)
chain: DIQLTQSPSTLSASMGDRVTITCSASSSVRFIHWYQQKPGKAPKRLIYDTSKLASGVPSRFSGSGSGTDFTLTISSLQPEDFATYYCQQWGSSPFTFGQGTKVEIKGSTSGGGSGGGSGGGGSSEVQLVEYGGGLVQPGGSLRLSCAASGFNIKDYYIHWVRQAPGKGLEWVAWIDPENGDTEFVPKFQGRATMSADTSKNTAYLQMNSLRAEDTAVYYCKTGGFWGQGTLVTVSSEPKSCDKTHTCPPCGGGSSGGGSGGQPREPQVYTLPPSRDELTKNQVSLTCLVKGFYPSDIAVEWESNGQPENNYKTTPPVLDSDGSFFLYSKLTVDKSRWQQGNVFSCSVMHEALHNHYTQKSLSLSPGK
notes: also called A11 minibody; variant A11
B2: C5 anti-PSCA minibody (other)
chain: DIQLIQSPSSLSASVGDRVTITCSASSSVRFIHWYQQKPGKAPKRLIYDTSKLASGVPSRFSGSGSGTDFTLTISSLQPEDFATYYCQQWSSSPFTFGQGTKVEIKGSTSGGGSGGGSGGGGSSEVQLVESGGGLVQPGGSLRLSCAASGFNIKDYYIHWVRQAPGKGLEWVAWIDPENGDTEFVPKFQGRATISADTSKNTVYLQMNSLRAKDTAVYYCKTGGFWGQGTLVTVSSEPKSCDKTHTCPPCGGGSSGGGSGGQPREPQVYTLPPSRDELTKNQVSLTCLVKGFYPSDIAVEWESNGQPENNYKTTPPVLDSDGSFFLYSKLTVDKSRWQQGNVFSCSVMHEALHNHYTQKSLSLSPGK
notes: also called C5 minibody; variant C5
B3: A2 anti-PSCA minibody (other)
chain: DIQLTQSPSSLSASVGDRVTITCSASSSVRFIHWYQQKPGKAPKRLIYDTSKLASGVPSRFSGSGSGTDFTLTISSLQPEDFATYYCQQWGSSPFTFGQGTKVEIKGSTSGGGSGGGSGGGGSEVQLVESGGGLVQPGGSLRLSCAASGFNIKDYYIHWVRQAPGKGLEWVAWIDPEYGDSEFVPKFQGRATMSADTSKNTAYLQMNSLRAEDTAVYYCKTGGFWGRGTLVTVSSEPKSCDKTHTCPPCGGGSSGGGSGGQPREPQVYTLPPSRDELTKNQVSLTCLVKGFYPSDIAVEWESNGQPENNYKTTPPVLDSDGSFFLYSKLTVDKSRWQQGNVFSCSVMHEALHNHYTQKSLSLSPGK
notes: also called A2 minibody; variant A2

What follows are binders tested against T1, purified PSCA-Fc (assay: competition ELISA, wells coated with purified PSCA-Fc; reference is the parental 2B3 minibody).
Method: The ranking of the four minibodies was determined by competition ELISA and flow cytometry (FIG. 5).
Competition ELISA: PSCA relative binding affinity for the minibodies was determined by competition ELISA in which microtiter plate wells were coated with purified PSCA-Fc (Olafsen T, et al. J. Irrununotherapy 2007: 30:396).

| Binder | improvement of relative affinity compared to the parental |
| --- | --- |
| B1 | 3 fold |
| B2 | 1.9 fold |
| B3 | 4.4 fold |
